Assay results reported in PMC5887372 (Nucleic Acids Research, 2018).

B2: DNMT1 RFTS domain (aa: 351–600) (domain or fragment)
chain: PKCIQCGQYLDDPDLKYGQHPPDAVDEPQMLTNEKLSIFDANESGFESYEALPQHKLTCFSVYCKHGHLCPIDTGLIEKNIELFFSGSAKPIYDDDPSLEGGVNGKNLGPINEWWITGFDGGEKALIGFSTSFAEYILMDPSPEYAPIFGLMQEKIYISKIVVEFLQSNSDSTYEDLINKIETTVPPSGLNLNRFTEDSLLRHAQFVVEQVESYDEAGDSDEQPIFLTPCMRDLIKLAGVTLGQRRAQAR
B3: DNMT1 RFTS domain E384A (domain or fragment)
chain: PKCIQCGQYLDDPDLKYGQHPPDAVDEPQMLTNAKLSIFDANESGFESYEALPQHKLTCFSVYCKHGHLCPIDTGLIEKNIELFFSGSAKPIYDDDPSLEGGVNGKNLGPINEWWITGFDGGEKALIGFSTSFAEYILMDPSPEYAPIFGLMQEKIYISKIVVEFLQSNSDSTYEDLINKIETTVPPSGLNLNRFTEDSLLRHAQFVVEQVESYDEAGDSDEQPIFLTPCMRDLIKLAGVTLGQRRAQAR
B4: DNMT1 RFTS domain E397A (domain or fragment)
chain: PKCIQCGQYLDDPDLKYGQHPPDAVDEPQMLTNEKLSIFDANESGFASYEALPQHKLTCFSVYCKHGHLCPIDTGLIEKNIELFFSGSAKPIYDDDPSLEGGVNGKNLGPINEWWITGFDGGEKALIGFSTSFAEYILMDPSPEYAPIFGLMQEKIYISKIVVEFLQSNSDSTYEDLINKIETTVPPSGLNLNRFTEDSLLRHAQFVVEQVESYDEAGDSDEQPIFLTPCMRDLIKLAGVTLGQRRAQAR

How the values were obtained:
ubiquitin [1] = target: T1, ubiquitin (UniProt P0CG48 1-76); assay: NMR titration
ubiquitin [2] = target: T1, ubiquitin; assay: ITC
[3] = target: DNMT1 RFTS domain E384A/E397A (human, UniProt P26358 351-600, E384A | E397A); assay: ITC
DNMT1 RFTS domain Y399G = DNMT1 RFTS domain Y399G (human, UniProt P26358 351-600, Y399G); assay: ITC
[4] = target: B2; assay: ITC
DNMT1 RFTS domain E397A = target: B4; assay: ITC
DNMT1 RFTS domain E384A = target: B3; assay: ITC
DNMT1 RFTS domain I442G = DNMT1 RFTS domain I442G (human, UniProt P26358 351-600, I442G); assay: ITC

B1: DNMT1_351 (aa: 351–1616) (domain or fragment)
chain: PKCIQCGQYLDDPDLKYGQHPPDAVDEPQMLTNEKLSIFDANESGFESYEALPQHKLTCFSVYCKHGHLCPIDTGLIEKNIELFFSGSAKPIYDDDPSLEGGVNGKNLGPINEWWITGFDGGEKALIGFSTSFAEYILMDPSPEYAPIFGLMQEKIYISKIVVEFLQSNSDSTYEDLINKIETTVPPSGLNLNRFTEDSLLRHAQFVVEQVESYDEAGDSDEQPIFLTPCMRDLIKLAGVTLGQRRAQARRQTIRHSTREKDRGPTKATTTKLVYQIFDTFFAEQIEKDDREDKENAFKRRRCGVCEVCQQPECGKCKACKDMVKFGGSGRSKQACQERRCPNMAMKEADDDEEVDDNIPEMPSPKKMHQGKKKKQNKNRISWVGEAVKTDGKKSYYKKVCIDAETLEVGDCVSVIPDDSSKPLYLARVTALWEDSSNGQMFHAHWFCAGTDTVLGATSDPLELFLVDECEDMQLSYIHSKVKVIYKAPSENWAMEGGMDPESLLEGDDGKTYFYQLWYDQDYARFESPPKTQPTEDNKFKFCVSCARLAEMRQKEIPRVLEQLEDLDSRVLYYSATKNGILYRVGDGVYLPPEAFTFNIKLSSPVKRPRKEPVDEDLYPEHYRKYSDYIKGSNLDAPEPYRIGRIKEIFCPKKSNGRPNETDIKIRVNKFYRPENTHKSTPASYHADINLLYWSDEEAVVDFKAVQGRCTVEYGEDLPECVQVYSMGGPNRFYFLEAYNAKSKSFEDPPNHARSPGNKGKGKGKGKGKPKSQACEPSEPEIEIKLPKLRTLDVFSGCGGLSEGFHQAGISDTLWAIEMWDPAAQAFRLNNPGSTVFTEDCNILLKLVMAGETTNSRGQRLPQKGDVEMLCGGPPCQGFSGMNRFNSRTYSKFKNSLVVSFLSYCDYYRPRFFLLENVRNFVSFKRSMVLKLTLRCLVRMGYQCTFGVLQAGQYGVAQTRRRAIILAAAPGEKLPLFPEPLHVFAPRACQLSVVVDDKKFVSNITRLSSGPFRTITVRDTMSDLPEVRNGASALEISYNGEPQSWFQRQLRGAQYQPILRDHICKDMSALVAARMRHIPLAPGSDWRDLPNIEVRLSDGTMARKLRYTHHDRKNGRSSSGALRGVCSCVEAGKACDPAARQFNTLIPWCLPHTGNRHNHWAGLYGRLEWDGFFSTTVTNPEPMGKQGRVLHPEQHRVVSVRECARSQGFPDTYRLFGNILDKHRQVGNAVPPPLAKAIGLEIKLCMLAKARESASAKIKEEEAAKD
Q: Does B1 bind (ubiquitin [1])?
A: Result: binds

Q: How did the Kd (ubiquitin [2]) turn out when B2 was run?
A: Its Kd is 26 µM.

Q: For B3, which “fold reduction of binding against wild-type RFTS” value (ubiquitin [2]) is on record?
A: The value was about 2 fold.

Q: For B4, which “fold reduction of binding against wild-type RFTS” value (ubiquitin [2]) is on record?
A: Its value is about 2 fold.

B5: UHRF1 UBL domain (aa: 1–76) (domain or fragment)
chain: MWIQVRTMDGRQTHTVDSLSRLTKVEELRRKIQELFHVEPGLQRLFYRGKQMEDGHTLFDYEVRLNDTIQLLVRQS
Q: Does B5 bind [3]?
A: Result: binds

Q: Does B5 bind (DNMT1 RFTS domain Y399G)?
A: Result: binds

Q: What about the Kd [4] of the same binder?
A: Its Kd is 41.3 µM.

Q: Does B5 bind (DNMT1 RFTS domain E397A)?
A: Result: binds

Q: Does B5 bind (DNMT1 RFTS domain E384A)?
A: Result: binds

Q: Does B5 bind (DNMT1 RFTS domain I442G)?
A: Result: binds
